According to US20090075394A1:

Target: Aeropyrum pernix KvAP voltage-dependent potassium channel (Aeropyrum pernix) (UniProt Q9YDF8)
Test: inhibition of KvAP channel currents by CTX, channels in planar lipid bilayers

Chain of Aeropyrum pernix KvAP voltage-dependent potassium channel (Aeropyrum pernix) (Q9YDF8 14-295): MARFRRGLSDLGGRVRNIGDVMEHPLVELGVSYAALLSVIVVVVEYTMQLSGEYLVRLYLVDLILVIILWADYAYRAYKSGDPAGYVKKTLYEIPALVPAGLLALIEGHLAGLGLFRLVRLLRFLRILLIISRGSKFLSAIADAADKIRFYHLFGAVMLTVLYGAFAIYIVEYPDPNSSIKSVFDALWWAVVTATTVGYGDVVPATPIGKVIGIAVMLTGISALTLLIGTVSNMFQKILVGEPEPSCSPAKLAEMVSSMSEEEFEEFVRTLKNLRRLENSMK

charybdotoxin (from UniProt P13487 23-59) (peptide)
Kd: 400 µM
